PMC8080589, “Modulation of αVβ6 integrin in osteoarthritis-related synovitis and the interaction with VTN(381–397 a.a.) competing for TGF-β1 activation” (Experimental & Molecular Medicine, 2021)
Ends that are not written are not given here.

Tests used:
integrin αVβ5 [1] = biological target: T1, integrin αVβ5 (Homo sapiens, UniProt P06756+P18084); experiment: Competition study, 125ISIB-echistatin vs ligands on coated αVβ5; format: binding; details: competition with 8 nM 125ISIB-echistatin, recombinant human αVβ5 coated at 1.8 µg/mL, IBB pH 7.4 / 0.5% BSA, 2 h room temperature, duplicate wells
T1 construct: purchased R&D System; Minneapolis, MN, USA
Method: (§1) A competition study was performed to investigate the interaction of VTN(381–397 a.a.) with five different integrins. Radiolabeled echistatin, a disintegrin known to bind integrin receptors, was used as a tracer for the binding assays. Lyophilized echistatin was provided by Bachem (Bubendorf, Switzerland) and radiolabeled by conjugation with a radioiodinated benzoate (^125ISIB) to the epsilon amino group of lysine side chains. For the five integrins, α5β1, αVβ1, αVβ3, αVβ5, and αVβ6 (R&D System; Minneapolis, MN, USA), a solution at 1.8 µg/mL was prepared with integrin-binding buffer (IBB; 20 mM Tris pH 7.4, 150 mM NaCl, 2 mM CaCl2, 1 mM MgCl2, 1 mM MnCl2). Nunc Maxisorp Module plates were coated overnight at 4 °C with integrin complex at 1.8 µg/mL. […] After rinsing, bound radioactivity was quantified using a gamma counter. The percentage of relative binding of radiolabeled echistatin was calculated as follows: radioactivity in the test well*100/radioactivity in the reference well. […] For comparison of the potency of ligands in inhibiting bound ^125ISIB-echistatin for different integrin complexes, the half-maximal inhibitory concentration (IC50) was calculated. The IC50 value was determined by constructing a dose–response curve and examining the effect of different concentrations of ligands on ^125ISIB-echistatin binding. […]

integrin αVβ3 [2] = biological target: T2, integrin αVβ3 (Homo sapiens, UniProt P05106+P06756); experiment: Saturation assay with radiolabeled echistatin, αVβ3; format: binding; details: increasing radiolabeled echistatin, integrin coated at 1.8 µg/mL
T2 construct: purchased R&D System; Minneapolis, MN, USA
Method: (§2) To determine if VTN(381–397 a.a.) could interact with integrins, we investigated its ability to compete with radiolabeled echistatin for binding to five different integrin complexes: α5β1, αVβ1, αVβ3, αVβ5 and αVβ6. We also tested the binding affinity of the whole VTN protein and another VTN fragment, VTN(365–381 a.a), as previously described by Maile et al.,[33]. First, the binding affinity of echistatin to the five integrins was measured by determining the equilibrium dissociation constant (KD). KD was evaluated by saturation assays involving addition of increasing concentrations of radiolabeled echistatin to a constant concentration of integrins (coated at 1.8 µg/mL). […] Subsequently, competitive experiments were performed using increasing concentrations of ligand and a fixed amount of radiolabeled echistatin. The fixed concentration of radiolabeled echistatin was determined according to its KD value. For each ligand concentration, the relative binding of ^125ISIB-echistatin to coated integrins was then measured, and values were plotted versus the logarithm of ligand concentration.

integrin αVβ3 [3] = biological target: T2, integrin αVβ3; experiment: Competition study, 125ISIB-echistatin vs ligands on coated αVβ3; format: binding; details: competition with 8 nM 125ISIB-echistatin, recombinant human αVβ3 coated at 1.8 µg/mL, IBB pH 7.4 / 0.5% BSA, 2 h room temperature, duplicate wells
Method: as §1

integrin α5β1 [4] = biological target: T3, integrin α5β1 (Homo sapiens, UniProt P05556+P08648); experiment: Competition study, 125ISIB-echistatin vs ligands on coated α5β1; format: binding; details: competition with 4 nM 125ISIB-echistatin, recombinant human α5β1 coated at 1.8 µg/mL, IBB pH 7.4 / 0.5% BSA, 2 h room temperature, duplicate wells
T3 construct: purchased R&D System; Minneapolis, MN, USA
Method: as §1

integrin αVβ6 [5] = biological target: T4, integrin αVβ6 (Homo sapiens, UniProt P06756+P18564); experiment: Competition study, 125ISIB-echistatin vs ligands on coated αVβ6; format: binding; details: competition with 20 nM 125ISIB-echistatin, recombinant human αVβ6 coated at 1.8 µg/mL, IBB pH 7.4 / 0.5% BSA, 2 h room temperature, duplicate wells, gamma counter, five-parameter logistic
T4 construct: purchased R&D System; Minneapolis, MN, USA
Method: as §1, with “µg/mL. After the wells were washed with sample buffer (IBB, 0.5% BSA), blocking solution (IBB, 2% BSA) was added, and the microplate was incubated for 2 h at room temperature. The wells were then washed three times with IBB/0.5% BSA. Then, ^125ISIB-echistatin was diluted in sample buffer to fixed concentrations of 4, 4, 8, 8, and 20 nM for α5β1, αVβ1, αVβ3, αVβ5, and αVβ6 competition studies, respectively. The ^125ISIB-echistatin was mixed with sample buffer at a ratio of 1:1 (total binding = control well) or with increasing concentrations of ligands (Supplementary information SI1) [complete VTN, VTN(381–397 a.a.), VTN(365–381 a.a.)] at a ratio 1:1 and added to wells in duplicate. We used 1,4,7-triazacyclononane-1,4,7-triacetic acid (NOTA) as a negative control.” for “µg/mL.”
To determine if VTN(381–397 a.a.) could interact with integrins, we investigated its ability to compete with radiolabeled echistatin for binding to five different integrin complexes: α5β1, αVβ1, αVβ3, αVβ5 and αVβ6. […] First, the binding affinity of echistatin to the five integrins was measured by determining the equilibrium dissociation constant (KD). […] The fixed concentration of radiolabeled echistatin was determined according to its KD value. For each ligand concentration, the relative binding of ^125ISIB-echistatin to coated integrins was then measured, and values were plotted versus the logarithm of ligand concentration.

integrin αVβ1 [6] = biological target: T5, integrin αVβ1 (Homo sapiens, UniProt P05556+P06756); experiment: Saturation assay with radiolabeled echistatin, αVβ1; format: binding; details: increasing radiolabeled echistatin, integrin coated at 1.8 µg/mL
T5 construct: purchased R&D System; Minneapolis, MN, USA
Method: as §2

integrin α5β1 [7] = biological target: T3, integrin α5β1; experiment: Saturation assay with radiolabeled echistatin, α5β1; format: binding; details: increasing radiolabeled echistatin, integrin coated at 1.8 µg/mL
Method: as §2

integrin αVβ1 [8] = biological target: T5, integrin αVβ1; experiment: Competition study, 125ISIB-echistatin vs ligands on coated αVβ1; format: binding; details: competition with 4 nM 125ISIB-echistatin, recombinant human αVβ1 coated at 1.8 µg/mL, IBB pH 7.4 / 0.5% BSA, 2 h room temperature, duplicate wells
Method: as §1

integrin αVβ6 [9] = biological target: T4, integrin αVβ6; experiment: Saturation assay with radiolabeled echistatin, αVβ6; format: binding; details: increasing radiolabeled echistatin, integrin coated at 1.8 µg/mL
Method: as §2

integrin αVβ5 [10] = biological target: T1, integrin αVβ5; experiment: Saturation assay with radiolabeled echistatin, αVβ5; format: binding; details: increasing radiolabeled echistatin, integrin coated at 1.8 µg/mL
Method: as §2

α-SMA in human FLSs = experiment: Expression of α-SMA in FLSs by western blot; format: cell-based; details: TGF-β1 10 ng/mL, 7 days, OA FLSs (n = 5), western blot normalized to Hsp90
Method: Finally, for analysis of the expression of α-SMA, FLSs (n = 5) were stimulated with VTN(381–397 a.a.) (10, 25, 50, 100 ng/mL) with or without TGF-β1 (10 ng/mL) for 7 days.
The expression of αV and β6 subunits and α-SMA in FLSs was evaluated by western blot analysis. Cells were scraped from plates and lysed with lysis buffer (25 mM HEPES, 150 mM NaCl, 0.5% Triton, 10% glycerol, 1 mM dithiothreitol) containing phosphatase inhibitors (25 mM β-glycerophosphate, 1 mM Na3VO4, and 1 mM NaF) and complete protease inhibitor mixture (Roche Applied Science; Penzberg, Germany). Total proteins were separated by 10% SDS–PAGE gels (12% for α-SMA) and transferred onto PVDF membranes. The membranes were then incubated with anti-αV polyclonal antibody (1:250 dilution) (Cell Signaling Technology; Boston, MA, USA), anti-β6 polyclonal antibody (1:1000 dilution) (Abcam; Cambridge, UK) or anti-α-SMA monoclonal antibody (Agilent; Santa Clara, CA, USA; 1:1000 dilution). […] Data were analyzed by paired Wilcoxon test; a p-value < 0.05 was considered statistically significant. […]
FLSs were stimulated with VTN(381–397 a.a.) with or without TGF-β1 to evaluate the effect on the expression of the fibrotic marker α-SMA (Fig. 5). […] The results in Fig. 5 are expressed as the ratio of the normalized optical density vs. the control and are shown as the mean (±SEM).

[11] = system: β6 integrin subunit expression, human fibroblast-like synoviocytes (FLSs); experiment: β6 subunit expression in FLSs by western blot after stimulation; format: cell-based; details: TGF-β1 10 ng/mL, 3 or 7 days, n = 12, OA FLSs, western blot normalized to GAPDH, paired Wilcoxon, p-value ≤ 0.01
Method: Synovial membranes were obtained from 22 OA patients (14 females, 8 males; mean age 69.8 ± 9.6 years, BMI 30.9 ± 6.8) during knee replacement, and primary synovial fibroblasts were isolated as explained previously. The research ethics committee of CHU de Liege (Belgium) approved the study, and the patient gave informed consent to allow research procedures on samples. Human fibroblast-like synoviocytes (FLSs) were then cultured in DMEM supplemented with 10% FBS, 1% Pen/Strep, and 1% L-glutamine (all from Lonza; Basel, Switzerland) at 37 °C in an atmosphere of 5% CO2. In a plate, 5 × 10^4 FLSs were stimulated with different compounds to analyze the modulation of αVβ6: (i) TGF-β1, TNF-α, IL-1β, or IL-6 were used for 3 or 7 days at a concentration of 10 ng/mL; (ii) among the danger-associated molecular patterns, high-mobility group box 1 (HMGB1) was tested at 10, 50, and 100 ng/mL for 3 days, while S100A9 and S100A12 were tested at 100 and 200 ng/mL for 3 days or 24 h; (iii) advanced glycation end product (AGE-BSA) was tested at 50, 100, and 200 μg/mL for 3 days or 24 h; (iv) prednisolone and dexamethasone were used at 1 μM for 3 or 7 days; and (v) menadione or H2O2 was used to induce oxidative stress at 25–50–100 μM (3 h) and 100–200–400 μM (2 h), respectively, without FBS in the medium.
The expression of αV and β6 subunits and α-SMA in FLSs was evaluated by western blot analysis. Cells were scraped from plates and lysed with lysis buffer (25 mM HEPES, 150 mM NaCl, 0.5% Triton, 10% glycerol, 1 mM dithiothreitol) containing phosphatase inhibitors (25 mM β-glycerophosphate, 1 mM Na3VO4, and 1 mM NaF) and complete protease inhibitor mixture (Roche Applied Science; Penzberg, Germany). Total proteins were separated by 10% SDS–PAGE gels (12% for α-SMA) and transferred onto PVDF membranes. The membranes were then incubated with anti-αV polyclonal antibody (1:250 dilution) (Cell Signaling Technology; Boston, MA, USA), anti-β6 polyclonal antibody (1:1000 dilution) (Abcam; Cambridge, UK) or anti-α-SMA monoclonal antibody (Agilent; Santa Clara, CA, USA; 1:1000 dilution). HRP-conjugated anti-rabbit antibody (1:1000 dilution) (Cell Signaling Technology) was used as the secondary antibody. Immunoblots were developed using the ECL chemiluminescent detection system. Rabbit anti-glyceraldehyde 3-phosphate dehydrogenase (GAPDH) (Merck) or rabbit anti-heat shock protein 90 (Hsp90; Santa Cruz) was used as loading controls at a dilution of 1:10,000 or 1:200, respectively. Values of optical intensity were normalized to GAPDH or Hsp90 levels. Data were analyzed by paired Wilcoxon test; a p-value < 0.05 was considered statistically significant. Statistical analysis was performed with GraphPad Prism 6 software (San Diego, CA, USA).
IL-1β 10 ng/mL 3 days IL-6 10 ng/mL 3 daysIL-6 Prednisolone 1µM 3 daysPrednisolone
0.0 control IL-6 0.0 control PRE
Dexamethasone 1µM 3 daysDexamethasone TNF-α 10 ng/mL 3 days AGE 50 µg/mL 24 h

[12] = system: latent TGF-β1 activation (αVβ6 on human FLSs; PAI-1 promoter-luciferase in TMLCs); experiment: TGF-β luciferase bioassay, TMLC + FLS coculture, activation of latent TGF-β1; format: cell-based, human FLSs; mink lung epithelial reporter cells; details: peptide 50 ng/mL, 200 ng/mL latent TGF-β1, TMLC + FLS coculture, 16 h, n = 6 donors in triplicate, paired Wilcoxon
Method: Transformed mink lung epithelial cells (TMLCs), a generous gift from Prof. DB Rifkin (Department of Cell Biology, NYU School of Medicine, New York, NY), were used to test TGF-β1 functionality. TMLCs were cultured in DMEM supplemented with 10% FBS, 1% Pen/Strep, and 1 mg/mL G418 Sulfate (Biowest; Riverside, MO, USA). For coculture, TMLCs were plated in 96-well plates at a density of 10^4 cells per well, and fibroblasts were added at a density of 1.5 × 10^4 cells per well, with a final volume of 100 μL. Cells were allowed to attach at 37 °C and 5% CO2. After 6 h, the medium was removed and replaced by the different treatments diluted in medium with 0.1% BSA without FBS (final volume of 100 μL).
For function-blocking experiments, cells were incubated with anti-αVβ6 antibody (clone 10D5; Merck) or with the isotype control IgG2a kappa (clone eBM2a; Thermo Fisher Scientific) for 20 min at room temperature at a concentration of 50 μg/mL in medium containing 1 mM MgCl2/0.1% BSA before adding other compounds. […] Luciferase activity was assessed by plate-reading luminometers with an injector (Victor™ X3; PerkinElmer Waltham, MA, USA) adding 100 µl of luciferase assay reagent (Promega) per well. […]
The data are expressed as relative luciferase activity (RLA). RLA is the measured luciferase activity of the coculture divided by the activity of the related control alone under the same conditions. […]

T4 sequence (P06756 31-992 limits assumed): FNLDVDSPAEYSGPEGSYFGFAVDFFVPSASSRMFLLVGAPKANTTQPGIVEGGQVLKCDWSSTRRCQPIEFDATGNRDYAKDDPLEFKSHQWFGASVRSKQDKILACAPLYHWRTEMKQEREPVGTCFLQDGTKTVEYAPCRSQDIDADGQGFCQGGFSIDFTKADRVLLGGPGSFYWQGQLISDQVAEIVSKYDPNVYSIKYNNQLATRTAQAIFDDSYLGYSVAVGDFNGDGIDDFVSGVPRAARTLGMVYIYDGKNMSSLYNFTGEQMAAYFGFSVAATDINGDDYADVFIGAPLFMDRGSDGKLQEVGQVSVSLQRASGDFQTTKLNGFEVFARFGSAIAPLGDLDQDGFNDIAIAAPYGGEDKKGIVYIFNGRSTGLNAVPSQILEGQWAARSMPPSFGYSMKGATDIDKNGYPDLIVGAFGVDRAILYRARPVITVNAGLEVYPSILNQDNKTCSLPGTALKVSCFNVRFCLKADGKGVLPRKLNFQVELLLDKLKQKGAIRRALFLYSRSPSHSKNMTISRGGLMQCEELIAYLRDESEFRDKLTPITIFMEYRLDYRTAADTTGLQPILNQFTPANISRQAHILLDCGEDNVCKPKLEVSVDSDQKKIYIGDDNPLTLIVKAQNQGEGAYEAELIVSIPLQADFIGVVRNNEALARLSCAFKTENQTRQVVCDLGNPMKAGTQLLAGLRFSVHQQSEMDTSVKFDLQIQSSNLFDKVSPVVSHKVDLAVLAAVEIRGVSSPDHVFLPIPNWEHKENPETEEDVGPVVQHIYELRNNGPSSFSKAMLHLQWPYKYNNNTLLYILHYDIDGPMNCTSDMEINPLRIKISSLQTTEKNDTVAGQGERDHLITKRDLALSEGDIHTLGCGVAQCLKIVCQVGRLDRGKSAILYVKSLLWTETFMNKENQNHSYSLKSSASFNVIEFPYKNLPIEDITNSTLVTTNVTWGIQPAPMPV
T4 sequence (P18564 22-707 limits assumed): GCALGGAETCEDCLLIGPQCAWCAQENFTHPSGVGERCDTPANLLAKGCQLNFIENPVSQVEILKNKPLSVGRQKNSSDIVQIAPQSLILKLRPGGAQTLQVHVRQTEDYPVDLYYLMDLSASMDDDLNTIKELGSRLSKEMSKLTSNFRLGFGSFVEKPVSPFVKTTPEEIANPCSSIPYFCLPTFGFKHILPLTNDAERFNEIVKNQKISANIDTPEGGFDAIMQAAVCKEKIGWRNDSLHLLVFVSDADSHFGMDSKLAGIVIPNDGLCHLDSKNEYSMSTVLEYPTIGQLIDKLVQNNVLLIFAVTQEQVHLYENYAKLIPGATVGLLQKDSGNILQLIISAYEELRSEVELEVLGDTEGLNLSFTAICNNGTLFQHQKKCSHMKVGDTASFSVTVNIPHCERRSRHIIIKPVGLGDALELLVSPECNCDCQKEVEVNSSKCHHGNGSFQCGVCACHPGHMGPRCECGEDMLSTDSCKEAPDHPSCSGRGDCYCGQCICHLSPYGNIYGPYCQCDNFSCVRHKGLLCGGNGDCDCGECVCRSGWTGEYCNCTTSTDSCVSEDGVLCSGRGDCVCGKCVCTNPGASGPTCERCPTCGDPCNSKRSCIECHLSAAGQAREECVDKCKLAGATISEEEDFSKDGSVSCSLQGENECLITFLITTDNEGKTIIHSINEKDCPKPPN
T5 sequence (P06756 31-992 limits assumed): as the sequence (P06756 31-992 limits assumed) above
T5 sequence (P05556 21-728 limits assumed): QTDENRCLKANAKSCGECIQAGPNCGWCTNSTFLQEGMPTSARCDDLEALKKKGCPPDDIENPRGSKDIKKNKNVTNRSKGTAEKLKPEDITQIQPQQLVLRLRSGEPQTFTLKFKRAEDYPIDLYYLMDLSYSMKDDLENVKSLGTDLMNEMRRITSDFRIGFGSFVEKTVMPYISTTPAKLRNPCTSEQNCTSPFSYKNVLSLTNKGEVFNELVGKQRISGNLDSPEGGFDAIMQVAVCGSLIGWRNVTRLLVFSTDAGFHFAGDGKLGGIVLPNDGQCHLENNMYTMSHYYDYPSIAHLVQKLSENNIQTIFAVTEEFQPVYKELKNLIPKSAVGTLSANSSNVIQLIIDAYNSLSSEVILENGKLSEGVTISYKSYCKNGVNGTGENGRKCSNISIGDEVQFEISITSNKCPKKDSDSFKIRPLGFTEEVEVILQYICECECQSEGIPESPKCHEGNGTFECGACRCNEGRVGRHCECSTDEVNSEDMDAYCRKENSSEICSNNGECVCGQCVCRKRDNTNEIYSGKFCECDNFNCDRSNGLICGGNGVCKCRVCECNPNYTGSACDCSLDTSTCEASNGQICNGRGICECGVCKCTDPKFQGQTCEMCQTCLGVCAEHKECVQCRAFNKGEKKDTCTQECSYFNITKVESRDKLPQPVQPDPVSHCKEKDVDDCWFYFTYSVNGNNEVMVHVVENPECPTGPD
T2 sequence (P06756 31-992 limits assumed): as the sequence (P06756 31-992 limits assumed) above
T2 sequence (P05106 27-718 limits assumed): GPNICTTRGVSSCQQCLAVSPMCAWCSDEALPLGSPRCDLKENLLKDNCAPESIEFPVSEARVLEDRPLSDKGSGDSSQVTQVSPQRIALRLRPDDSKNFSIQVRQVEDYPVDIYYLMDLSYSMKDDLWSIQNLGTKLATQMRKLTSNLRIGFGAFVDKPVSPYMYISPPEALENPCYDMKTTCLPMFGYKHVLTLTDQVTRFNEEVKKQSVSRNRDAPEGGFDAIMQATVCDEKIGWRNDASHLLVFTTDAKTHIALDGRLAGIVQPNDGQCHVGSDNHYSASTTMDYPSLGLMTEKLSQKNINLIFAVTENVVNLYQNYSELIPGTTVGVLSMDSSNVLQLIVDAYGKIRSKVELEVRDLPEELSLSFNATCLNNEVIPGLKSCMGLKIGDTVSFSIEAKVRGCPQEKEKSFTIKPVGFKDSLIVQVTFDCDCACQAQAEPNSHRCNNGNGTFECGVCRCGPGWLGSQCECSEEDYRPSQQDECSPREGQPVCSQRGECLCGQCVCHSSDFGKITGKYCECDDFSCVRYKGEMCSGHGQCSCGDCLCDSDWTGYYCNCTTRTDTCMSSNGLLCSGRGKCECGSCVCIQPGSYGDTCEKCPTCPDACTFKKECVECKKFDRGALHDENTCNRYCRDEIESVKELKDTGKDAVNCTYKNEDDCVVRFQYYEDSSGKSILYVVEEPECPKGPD
T1 sequence (P06756 31-992 limits assumed): as the sequence (P06756 31-992 limits assumed) above
T1 sequence (P18084 24-719 limits assumed): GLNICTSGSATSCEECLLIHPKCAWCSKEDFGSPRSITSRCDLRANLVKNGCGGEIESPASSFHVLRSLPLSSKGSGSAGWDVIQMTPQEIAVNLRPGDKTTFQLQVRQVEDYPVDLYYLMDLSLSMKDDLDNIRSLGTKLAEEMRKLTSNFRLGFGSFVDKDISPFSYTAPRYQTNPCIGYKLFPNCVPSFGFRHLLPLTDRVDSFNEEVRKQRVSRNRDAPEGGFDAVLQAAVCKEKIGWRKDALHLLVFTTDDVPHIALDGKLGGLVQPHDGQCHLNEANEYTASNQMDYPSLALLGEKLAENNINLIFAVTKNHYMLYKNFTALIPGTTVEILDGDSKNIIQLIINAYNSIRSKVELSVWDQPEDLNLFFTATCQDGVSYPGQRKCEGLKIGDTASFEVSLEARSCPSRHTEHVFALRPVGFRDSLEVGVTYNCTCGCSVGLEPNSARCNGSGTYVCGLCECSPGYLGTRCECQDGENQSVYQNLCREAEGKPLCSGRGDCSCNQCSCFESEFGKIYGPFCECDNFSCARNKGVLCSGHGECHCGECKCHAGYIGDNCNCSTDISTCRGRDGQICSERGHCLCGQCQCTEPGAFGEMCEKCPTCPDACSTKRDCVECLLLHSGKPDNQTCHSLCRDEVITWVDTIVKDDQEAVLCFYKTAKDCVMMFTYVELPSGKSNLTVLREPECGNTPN
T3 sequence (P08648 42-995 limits assumed): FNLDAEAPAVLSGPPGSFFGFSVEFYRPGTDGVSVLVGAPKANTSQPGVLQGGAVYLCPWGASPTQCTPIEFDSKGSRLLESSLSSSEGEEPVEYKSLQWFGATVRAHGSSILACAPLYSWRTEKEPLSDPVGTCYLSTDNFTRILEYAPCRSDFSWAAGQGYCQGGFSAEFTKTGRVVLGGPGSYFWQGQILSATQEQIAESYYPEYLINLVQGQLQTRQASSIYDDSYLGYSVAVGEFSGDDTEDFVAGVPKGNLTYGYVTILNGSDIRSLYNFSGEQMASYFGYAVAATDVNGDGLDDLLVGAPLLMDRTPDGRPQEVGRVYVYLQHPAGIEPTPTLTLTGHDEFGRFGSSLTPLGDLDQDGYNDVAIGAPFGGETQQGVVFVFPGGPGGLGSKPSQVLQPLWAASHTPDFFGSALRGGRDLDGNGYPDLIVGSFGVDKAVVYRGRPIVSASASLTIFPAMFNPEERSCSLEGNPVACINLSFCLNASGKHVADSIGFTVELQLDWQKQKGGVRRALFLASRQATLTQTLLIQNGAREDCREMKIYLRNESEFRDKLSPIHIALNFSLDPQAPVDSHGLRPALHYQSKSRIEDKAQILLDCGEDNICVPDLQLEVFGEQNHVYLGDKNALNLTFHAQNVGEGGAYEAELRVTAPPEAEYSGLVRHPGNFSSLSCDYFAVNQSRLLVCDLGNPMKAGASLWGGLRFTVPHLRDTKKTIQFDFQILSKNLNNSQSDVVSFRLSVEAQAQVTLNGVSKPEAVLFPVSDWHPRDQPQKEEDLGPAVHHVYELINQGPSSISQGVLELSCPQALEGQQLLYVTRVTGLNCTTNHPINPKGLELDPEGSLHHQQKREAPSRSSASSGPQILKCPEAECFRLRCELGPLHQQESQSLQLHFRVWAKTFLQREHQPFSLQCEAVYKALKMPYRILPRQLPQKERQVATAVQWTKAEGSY
T3 sequence (P05556 21-728 limits assumed): as the sequence (P05556 21-728 limits assumed) above

Echistatin (QCESGPCCRNCKFLKEGTICKRARGDDMDDYCNGKTCDCPRNPHKGPAT; disulfide (positions not given here); not fully specified (bridges); also: Lys ε-amino groups conjugated with 125I-iodobenzoate (125ISIB), positions not given here) [tracer radiolabeled with radioiodinated benzoate (125ISIB) at lysine side chains]
IC50 (integrin αVβ5 [1]): 4 nM
Kd (integrin αVβ3 [2]): 3.17 nM
IC50 (integrin αVβ3 [3]): 3.7 nM
IC50 (integrin α5β1 [4]): 2 nM
IC50 (integrin αVβ6 [5]): 14 nM
Kd (integrin αVβ1 [6]): 0.99 nM
Kd (integrin α5β1 [7]): 1.48 nM
IC50 (integrin αVβ1 [8]): 1.5 nM
Kd (integrin αVβ6 [9]): 17.1 nM
Kd (integrin αVβ5 [10]): 3.46 nM

TGF-β1: profibrotic mediator
effect on α-SMA (α-SMA in human FLSs): upregulated the content of the fibrotic marker α-SMA
effect on β6 subunit expression [11]: significantly increased β6 expression

hepcidin: used as a control peptide
effect on latent TGF-β1 activation (luciferase signal) [12]: No significant variation was observed
